# Experimental data taken from US20120135923A1, “Use of Melanocortins to Treat Dyslipidemia” (IPSEN PHARMA, S.A.S., priority 2009, published 2012).
# Bridge positions count the residues as written; N and C are the ends. Square brackets hold non-standard residues; d marks the D form. 1Nal = N[C@@H](Cc1cccc2ccccc12)C(=O)O; 2Nal = N[C@@H](Cc1ccc2ccccc2c1)C(=O)O; d2Nal = N[C@H](Cc1ccc2ccccc2c1)C(=O)O
# Assays:
# Experiment in all cases: cell-based or functional assay
# hMC5-R (human) = hMC5-R (human) (UniProt P33032)
# hMC3-R (human) = hMC3-R (human) (UniProt P41968)
# hMC1-R (human) = hMC1-R (human) (UniProt Q01726)
# hMC4-R (human) = hMC4-R (human) (UniProt P32245)
# Chain of hMC4-R (human) (P32245 whole entry): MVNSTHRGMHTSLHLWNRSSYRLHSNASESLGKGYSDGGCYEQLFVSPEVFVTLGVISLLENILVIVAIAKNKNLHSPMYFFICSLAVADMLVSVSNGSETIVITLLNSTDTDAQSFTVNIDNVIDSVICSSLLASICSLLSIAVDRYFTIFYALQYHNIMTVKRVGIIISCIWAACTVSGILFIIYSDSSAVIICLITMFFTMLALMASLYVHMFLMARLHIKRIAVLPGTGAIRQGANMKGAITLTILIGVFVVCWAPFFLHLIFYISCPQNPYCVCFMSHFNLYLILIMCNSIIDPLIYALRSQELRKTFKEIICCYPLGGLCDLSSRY
# Chain of hMC3-R (human) (P41968 whole entry): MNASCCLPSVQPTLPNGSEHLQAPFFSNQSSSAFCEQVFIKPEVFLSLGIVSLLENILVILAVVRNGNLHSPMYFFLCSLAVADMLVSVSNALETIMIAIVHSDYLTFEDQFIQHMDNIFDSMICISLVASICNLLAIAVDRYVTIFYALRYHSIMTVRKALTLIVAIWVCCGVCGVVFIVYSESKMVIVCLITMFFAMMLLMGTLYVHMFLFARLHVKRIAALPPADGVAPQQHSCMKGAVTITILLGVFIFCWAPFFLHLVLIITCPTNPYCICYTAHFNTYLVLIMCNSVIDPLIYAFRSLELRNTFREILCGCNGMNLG
# Chain of hMC5-R (human) (P33032 whole entry): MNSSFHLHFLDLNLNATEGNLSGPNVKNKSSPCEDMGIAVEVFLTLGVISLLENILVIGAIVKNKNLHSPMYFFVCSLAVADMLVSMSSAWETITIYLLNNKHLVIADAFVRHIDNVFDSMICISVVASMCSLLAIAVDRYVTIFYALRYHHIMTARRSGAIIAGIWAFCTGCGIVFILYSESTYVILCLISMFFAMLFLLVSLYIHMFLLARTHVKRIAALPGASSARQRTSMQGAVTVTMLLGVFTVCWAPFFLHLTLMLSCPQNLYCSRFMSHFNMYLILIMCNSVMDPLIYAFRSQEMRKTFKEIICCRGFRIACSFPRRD
# Chain of hMC1-R (human) (Q01726 whole entry): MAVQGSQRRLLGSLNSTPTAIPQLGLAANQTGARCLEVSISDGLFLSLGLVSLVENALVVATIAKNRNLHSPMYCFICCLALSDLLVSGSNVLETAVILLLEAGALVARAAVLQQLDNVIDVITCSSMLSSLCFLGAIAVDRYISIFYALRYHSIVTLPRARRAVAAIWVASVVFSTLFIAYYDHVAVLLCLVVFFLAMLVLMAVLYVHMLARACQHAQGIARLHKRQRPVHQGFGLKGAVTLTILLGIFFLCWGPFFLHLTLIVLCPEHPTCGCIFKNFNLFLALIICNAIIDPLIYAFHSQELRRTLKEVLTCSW
Substance,cAMP EC50 (hMC5-R (human)) [nM],cAMP EC50 (hMC1-R (human)),cAMP EC50 (hMC3-R (human)) [nM],cAMP EC50 (hMC4-R (human)) [nM],also measured
Ac-Arg-c(Cys-D-Ala-His-D-Phe-Arg-Trp-Cys)-NH2 (peptide; unit assumed),1630,–,–,–,–
Ac-CEH[d2Nal]R[1Nal]ACPPKD-NH2 (disulfide 1-8) [listing 2 of 2 here],104,–,–,–,–
Ac-CEH[d2Nal]R[2Nal]ACPPKD-NH2 (disulfide 1-8) [listing 2 of 2 here],66.9,–,–,–,–
Ac-D-Arg-c(Cys-D-Ala-His-D-Phe-Arg-Trp-Cys)-NH2 (peptide; unit assumed),1020,–,–,–,–
Ac-Nle-c(Asp-His-D-2-Nal-Arg-Trp-Lys)-β-Ala-Tyr-Gly-Arg-Lys-Lys-Arg-Arg-Gln-Arg-Arg-Arg-NH2 (peptide; in nM (unit assumed)),–,–,–,–,cAMP Kb (hMC3-R (human)): 220; cAMP Kb (hMC4-R (human)): 4.07
Ac-Nle-c(Asp-His-D-2-Nal-Arg-Trp-Lys)-β-Ala-β-Ala-Tyr-Gly-Arg-Lys-Lys-Arg-Arg-Gln-Arg-Arg-Arg-NH2 (peptide; in nM (unit assumed)),–,1.39,–,–,cAMP Kb (hMC3-R (human)): 16.2; cAMP Kb (hMC4-R (human)): 7.94
Ac-Nle-c(Asp-His-D-2-Nal-Arg-Trp-Lys)-β-Ala-β-Ala-Tyr-Gly-Arg-Lys-Lys-Arg-Arg-Gln-Arg-Arg-Arg-NH2 (peptide; unit assumed),0.839,–,–,–,–
Ac-Tyr-Arg-c(Cys-D-Ala-His-D-Phe-Arg-Trp-Cys)-NH2 (peptide; unit assumed),1540,–,2.39,–,–
Ac-c(Cys-Glu-His-D-2-Nal-Arg-Bal-Ala-Cys)-Pro-Pro-Lys-Asp-NH2 (peptide; in nM (unit assumed)),–,690,–,–,cAMP Kb (hMC3-R (human)): 70.7; cAMP Kb (hMC4-R (human)): 4.56
Ac-c(Cys-Glu-His-D-2-Nal-Arg-Trp-Ala-Cys)-Pro-Pro-Lys-Asp-β-Ala-Tyr-Gly-Arg-Lys-Lys-Arg-Arg-Gln-Arg-Arg-Arg-NH2 (peptide; in nM (unit assumed)),–,6.3,–,–,cAMP Kb (hMC3-R (human)): 70; cAMP Kb (hMC4-R (human)): 1.66
Ac-c(Cys-Glu-His-D-2-Nal-Arg-Trp-Ala-Cys)-Pro-Pro-Lys-Asp-β-Ala-Tyr-Gly-Arg-Lys-Lys-Arg-Arg-Gln-Arg-Arg-Arg-NH2 (peptide; unit assumed),38.2,–,–,–,–
Hydantoin(C(O)-(Ala-Gly))-c(Cys-D-Ala-His-D-Phe-Arg-Trp-Cys)-NH2 (peptide),516,–,–,–,–
Hydantoin(C(O)-(Ala-Gly))-c(Cys-D-Ala-His-D-Phe-Arg-Trp-Cys)-NH2 (peptide; unit assumed),–,17.6 nM,2.23,0.241,–
Hydantoin(C(O)-(Arg-Gly))-c(Cys-D-Ala-His-D-Phe-Arg-Trp-Cys)-NH2 (peptide; unit assumed),–,8.81 nM,18.2,0.503,–
Hydantoin(C(O)-(Arg-Gly))-c(Cys-Glu-His-D-Phe-Arg-Trp-Cys)-NH2 (peptide; unit assumed),–,8.83 nM,7.86,0.0979,–
Hydantoin(C(O)-(D-Ala-Nle))-c(Cys-D-Ala-His-D-Phe-Arg-Trp-Cys)-NH2 (peptide; unit assumed),–,–,2.56,1.47,–
Hydantoin(C(O)-(Gly-Arg))-c(Cys-D-Ala-His-D-Phe-Arg-Trp-Cys)-NH2 (peptide),3610,–,–,–,–
Hydantoin(C(O)-(Gly-Arg))-c(Cys-D-Ala-His-D-Phe-Arg-Trp-Cys)-NH2 (peptide; unit assumed),–,8.85 nM,5.17,0.599,–
Hydantoin(C(O)-(Gly-Arg))-c(Cys-Glu-His-D-Phe-Arg-Trp-Cys)-NH2 (peptide; unit assumed),–,9.97 nM,3.63,0.0687,–
Hydantoin(C(O)-(Nle-Gly))-c(Cys-D-Ala-His-D-Phe-Arg-Trp-Pen)-NH2 (peptide),352,–,–,–,–
Hydantoin(C(O)-(Nle-Gly))-c(Cys-Glu-His-D-Phe-Arg-Trp-Cys)-NH2 (peptide),> 10000,–,–,–,–
Nle-c(Asp-His-D-2-Nal-Arg-Trp-Lys)-β-Ala-Tyr-Gly-Arg-Lys-Lys-Arg-Arg-Gln-Arg-Arg-Arg-NH2 (peptide; in nM (unit assumed)),–,–,–,–,cAMP Kb (hMC3-R (human)): 207; cAMP Kb (hMC4-R (human)): 18.5

# Second part, led by results:
cAMP EC50 (hMC5-R (human)) [nM],cAMP EC50 (hMC1-R (human)),cAMP EC50 (hMC3-R (human)) [nM],cAMP EC50 (hMC4-R (human)) [nM],Substance,also measured
–,269,–,–,Ac-CEH[d2Nal]R[1Nal]ACPPKD-NH2 (disulfide 1-8) [listing 1 of 2 here],cAMP Kb (hMC3-R (human)): 105; cAMP Kb (hMC4-R (human)): 5.92
–,33.6,–,–,Ac-CEH[d2Nal]R[2Nal]ACPPKD-NH2 (disulfide 1-8) [listing 1 of 2 here],cAMP Kb (hMC3-R (human)): 140; cAMP Kb (hMC4-R (human)): 12.2
–,0.619 nM,–,–,Ac-Nle-c(Asp-His-D-2-Nal-Arg-Trp-Ala-Lys)-NH2 (peptide; unit assumed),–
–,0.913 nM,–,–,Ac-Nle-c(Asp-His-D-2-Nal-Arg-Trp-β-Ala-Lys)-NH2 (peptide; unit assumed),–
–,–,1.89,0.531,Ac-Nle-c(Pen-D-Ala-His-D-Phe-Arg-Trp-Cys)-NH2 (peptide; unit assumed),–
177,–,–,–,Ac-c(Cys-Glu-His-D-2-Nal-Arg-Bal-Ala-Cys)-Pro-Pro-Lys-Asp-NH2 (peptide; unit assumed),–
–,–,–,1.8,Hydantoin(C(O)-(A6c-Nle))-c(Cys-D-Ala-His-D-Phe-Arg-Trp-Cys)-NH2 (peptide; unit assumed),–
3560,–,–,–,Hydantoin(C(O)-(Arg-Gly))-c(Cys-D-Ala-His-D-Phe-Arg-Trp-Cys)-NH2 (peptide),–
4010,–,–,–,Hydantoin(C(O)-(Arg-Gly))-c(Cys-Glu-His-D-Phe-Arg-Trp-Cys)-NH2 (peptide),–
–,4.7 nM,2.22,0.309,Hydantoin(C(O)-(D-Ala-Gly))-c(Cys-D-Ala-His-D-Phe-Arg-Trp-Cys)-NH2 (peptide; unit assumed),–
–,11.5 nM,23.2,0.513,Hydantoin(C(O)-(D-Arg-Gly))-c(Cys-D-Ala-His-D-Phe-Arg-Trp-Cys)-NH2 (peptide; unit assumed),–
–,18 nM,17.1,0.16,Hydantoin(C(O)-(D-Arg-Gly))-c(Cys-Glu-His-D-Phe-Arg-Trp-Cys)-NH2 (peptide; unit assumed),–
335,–,–,–,Hydantoin(C(O)-(Gly-Arg))-c(Cys-Glu-His-D-Phe-Arg-Trp-Cys)-NH2 (peptide),–
9840,–,–,–,Hydantoin(C(O)-(Gly-D-Arg))-c(Cys-D-Ala-His-D-Phe-Arg-Trp-Cys)-NH2 (peptide),–
201,–,–,–,Hydantoin(C(O)-(Gly-Gly))-c(Cys-D-Ala-His-D-Phe-Arg-Trp-Cys)-NH2 (peptide),–
> 10000,–,–,–,Hydantoin(C(O)-(Gly-Gly))-c(Cys-Glu-His-D-Phe-Arg-Trp-Cys)-NH2 (peptide),–
–,–,9.68,1.83,Hydantoin(C(O)-(Leu-Nle))-c(Cys-D-Ala-His-D-Phe-Arg-Trp-Cys)-NH2 (peptide; unit assumed),–
–,–,4.61,0.977,Hydantoin(C(O)-(Val-Nle))-c(Cys-D-Ala-His-D-Phe-Arg-Trp-Cys)-NH2 (peptide; unit assumed),–
–,–,22.3,3.62,c[Hydantoin(C(O)-(Glu-D-Ala))-His-D-Phe-Arg-Trp-Lys]-NH2 (peptide; unit assumed),–
–,–,8.51,1.85,c[Hydantoin(C(O)-(Ile-Cys))-D-Ala-His-D-Phe-Arg-Trp-Cys]-NH2 (peptide; unit assumed),–
